Measurements published in the supplement of paper PMC6757056.
± gives the standard deviation of the averaged measurements.

B1: library; a variant is named by its letters at N, in order (parent)
chain: GCUGUCACCGGUGCUUGGUACGUUAUAUUCAGCCGGUCUGAUGAGUCUNNNNNNAGACGAAACAGC

Legend:
[1] = variants of: B1; test: normalized RNA/DNA level without ligand (relative to sTRSVctl = 100) (log10 (% of sTRSVctl)); HEK293T overexpressing SLC46A1; higher = less ribozyme self-cleavage, higher mRNA level; conditions: without (6R,S)-folinic acid; ligand present: no
Summary of the method: (§1)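 RNA level was computed as RNA reads over DNA reads divided by a spiked-in non-cleaving sequence or by the top sequences, then scaled and log-transformed. Scaling was ×100 with log10, the top group was 25 sequences, and the threshold was ≥100 DNA reads. The reads came from HEK293T cells transfected at 4 µg per 6-well well with ribozyme switch library plasmids (mCherry, or eGFP in some ligand experiments). Total RNA was extracted with EDTA 72 h after transfection, with any ligand added 1 h before it.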

[2] = variants of: B1; test: normalized RNA/DNA level with ligand (relative to sTRSVctl = 100) (log10 (% of sTRSVctl)); HEK293T overexpressing SLC46A1; ligand concentration (+) RNA-Seq: 6 mM; higher = less ribozyme self-cleavage, higher mRNA level; conditions: with (6R,S)-folinic acid; ligand present: yes
Summary of the method: as §1

| Variant | normalized RNA/DNA level without ligand (log10) [1] | normalized RNA/DNA level with ligand (log10) [2] |
| --- | --- | --- |
| UGAAUU | 1.986 ± 0.0089 | 2 ± 0.036 |
| AGAAUU | 2.005 ± 0.02 | 2.021 ± 0.008 |
| CGACAA | 1.945 ± 0.013 | 1.96 ± 0.029 |
| AGACAA | 2.004 ± 0.0066 | 2.01 ± 0.03 |
| CGACAC | 2.026 ± 0.012 | 2 ± 0.037 |
| GGACAC | 2.013 ± 0.013 | 2.03 ± 0.039 |
| UGACAC | 2.002 ± 0.0083 | 2.008 ± 0.0047 |
| AGACAC | 2.0193 ± 0.00083 | 2.01 ± 0.028 |
| CGACAG | 1.95 ± 0.031 | 1.972 ± 0.018 |
| GGACAG | 1.954 ± 0.0092 | 1.99 ± 0.052 |
| CGACAU | 2.006 ± 0.006 | 2.02 ± 0.044 |
| GGACAU | 2.018 ± 0.011 | 2.011 ± 0.016 |
| UGACAU | 1.9505 ± 0.00041 | 1.99 ± 0.05 |
| AGACAU | 1.994 ± 0.0052 | 2.02 ± 0.026 |
| CGACCA | 2.079 ± 0.0068 | 2.03 ± 0.034 |
| GGACCA | 2.054 ± 0.017 | 2.02 ± 0.029 |
| CGACCC | 2.05 ± 0.028 | 2.02 ± 0.051 |
| GGACCC | 2.045 ± 0.019 | 2.027 ± 0.015 |
| UGACCC | 2.041 ± 0.011 | 2.02 ± 0.026 |
| AGACCC | 2.039 ± 0.0085 | 2.02 ± 0.055 |
| CGACCG | 1.991 ± 0.007 | 1.99 ± 0.018 |
| UGACCG | 1.983 ± 0.0022 | 2.01 ± 0.023 |
| AGACCG | 2.05 ± 0.026 | 2.04 ± 0.029 |
| CGACCU | 2.061 ± 0.0049 | 2.016 ± 0.013 |

| Variant | normalized RNA/DNA level without ligand (log10) [1] | normalized RNA/DNA level with ligand (log10) [2] |
| --- | --- | --- |
| GGACCU | 2.062 ± 0.0094 | 2.02 ± 0.033 |
| UGACCU | 2.058 ± 0.011 | 2.06 ± 0.034 |
| CGACGA | 2.001 ± 0.011 | 2 ± 0.05 |
| CGACGC | 2.03 ± 0.0041 | 2.01 ± 0.038 |
| GGACGC | 1.949 ± 0.0027 | 1.96 ± 0.025 |
| CGACGG | 1.926 ± 0.014 | 1.973 ± 0.015 |
| GGACGG | 2.008 ± 0.015 | 2.04 ± 0.033 |
| AGACGG | 1.934 ± 0.011 | 2.01 ± 0.027 |
| CGACGU | 1.995 ± 0.002 | 2.02 ± 0.021 |
| UGACGU | 1.97 ± 0.03 | 2.02 ± 0.023 |
| AGACGU | 1.976 ± 0.0062 | 2.01 ± 0.026 |
| CGACUA | 2.014 ± 0.0047 | 2.042 ± 0.0086 |
| UGACUA | 1.963 ± 0.0017 | 2.0143 ± 0.0019 |
| AGACUA | 1.977 ± 0.0092 | 1.98 ± 0.043 |
| CGACUC | 2.08 ± 0.023 | 2.04 ± 0.07 |
| GGACUC | 2.0453 ± 0.0012 | 2.05 ± 0.03 |
| UGACUC | 2.075 ± 0.011 | 2.042 ± 0.0068 |
| AGACUC | 2.038 ± 0.0045 | 2.05 ± 0.021 |
| CGACUG | 2.028 ± 0.0025 | 2.014 ± 0.011 |
| GGACUG | 1.9977 ± 0.00047 | 2 ± 0.059 |
| AGACUG | 2.003 ± 0.0063 | 2.01 ± 0.04 |
| CGACUU | 2.01 ± 0.035 | 2.05 ± 0.025 |
| GGACUU | 2.007 ± 0.0068 | 1.976 ± 0.016 |
| UGACUU | 2.006 ± 0.014 | 2.017 ± 0.015 |

| Variant | normalized RNA/DNA level without ligand (log10) [1] | normalized RNA/DNA level with ligand (log10) [2] |
| --- | --- | --- |
| AGACUU | 2.021 ± 0.0033 | 1.99 ± 0.024 |
| AGAGAA | 1.953 ± 0.0039 | 1.99 ± 0.025 |
| CGAGAC | 1.947 ± 0.015 | 1.974 ± 0.012 |
| UGAGAC | 1.912 ± 0.011 | 1.98 ± 0.028 |
| AGAGAC | 1.981 ± 0.0066 | 2.009 ± 0.016 |
| CGAGAG | 1.964 ± 0.015 | 1.964 ± 0.0059 |
| GGAGAG | 1.85 ± 0.02 | 1.97 ± 0.038 |
| AGAGAG | 1.67 ± 0.022 | 1.966 ± 0.015 |
| CGAGAU | 1.957 ± 0.011 | 1.99 ± 0.025 |
| AGAGAU | 1.982 ± 0.011 | 1.99 ± 0.023 |
| CGAGCA | 2 ± 0.021 | 2.02 ± 0.029 |
| GGAGCA | 1.978 ± 0.0021 | 2.02 ± 0.022 |
| UGAGCA | 1.95 ± 0.014 | 2.0212 ± 0.00076 |
| AGAGCA | 1.977 ± 0.0046 | 2.01 ± 0.051 |
| CGAGCC | 2.06 ± 0.028 | 2.03 ± 0.039 |
| UGAGCC | 2.038 ± 0.0055 | 2.04 ± 0.041 |
| AGAGCC | 2.05 ± 0.003 | 2.04 ± 0.045 |
| CGAGCG | 1.994 ± 0.015 | 1.998 ± 0.017 |
| GGAGCG | 1.939 ± 0.011 | 2.02 ± 0.041 |
| AGAGCG | 1.775 ± 0.0033 | 1.97 ± 0.029 |
| CGAGCU | 2.014 ± 0.02 | 2.03 ± 0.04 |
| GGAGCU | 2.045 ± 0.017 | 2.04 ± 0.04 |
| CGAGGA | 2.019 ± 0.0022 | 2.04 ± 0.029 |
| GGAGGA | 1.975 ± 0.0041 | 2.01 ± 0.046 |

| Variant | normalized RNA/DNA level without ligand (log10) [1] | normalized RNA/DNA level with ligand (log10) [2] |
| --- | --- | --- |
| AGAGGA | 1.929 ± 0.014 | 2.02 ± 0.039 |
| CGAGGC | 2.03 ± 0.013 | 2.04 ± 0.031 |
| UGAGGC | 1.982 ± 0.0067 | 1.98 ± 0.073 |
| AGAGGC | 2.018 ± 0.02 | 2.01 ± 0.04 |
| GGAGGG | 1.98 ± 0.028 | 2.04 ± 0.046 |
| AGAGGG | 1.78 ± 0.02 | 2.01 ± 0.015 |
| CGAGGU | 2.02 ± 0.02 | 2.02 ± 0.054 |
| UGAGGU | 1.918 ± 0.017 | 2.02 ± 0.032 |
| AGAGGU | 1.889 ± 0.0033 | 2 ± 0.076 |
| CGAGUA | 1.965 ± 0.0014 | 2 ± 0.04 |
| AGAGUA | 1.94 ± 0.0059 | 2.01 ± 0.033 |
| CGAGUC | 2.053 ± 0.0089 | 2.037 ± 0.0081 |
| GGAGUC | 2.02 ± 0.023 | 2.01 ± 0.024 |
| UGAGUC | 2.011 ± 0.012 | 2 ± 0.049 |
| AGAGUC | 2.059 ± 0.0045 | 2.02 ± 0.034 |
| GGAGUG | 1.915 ± 0.004 | 2.01 ± 0.029 |
| AGAGUG | 1.71 ± 0.035 | 1.98 ± 0.039 |
| GGAGUU | 2.011 ± 0.0026 | 2.05 ± 0.039 |
| UGAGUU | 1.943 ± 0.0073 | 1.99 ± 0.035 |
| AGAGUU | 2.002 ± 0.0079 | 2.011 ± 0.0021 |
| CGAUAA | 1.946 ± 0.015 | 1.98 ± 0.04 |
| CGAUAC | 1.995 ± 0.013 | 2.015 ± 0.0083 |
| GGAUAC | 1.988 ± 0.011 | 2.034 ± 0.013 |
| AGAUAC | 1.983 ± 0.0026 | 2.022 ± 0.02 |

| Variant | normalized RNA/DNA level without ligand (log10) [1] | normalized RNA/DNA level with ligand (log10) [2] |
| --- | --- | --- |
| CGAUAG | 1.959 ± 0.0024 | 1.977 ± 0.01 |
| GGAUAG | 1.95 ± 0.0034 | 2.03 ± 0.038 |
| UGAUAG | 1.7093 ± 0.0017 | 1.96 ± 0.049 |
| AGAUAG | 1.9299 ± 0.00079 | 2.01 ± 0.041 |
| CGAUAU | 1.949 ± 0.0095 | 2.01 ± 0.028 |
| GGAUAU | 2.0169 ± 0.0015 | 2.02 ± 0.023 |
| UGAUAU | 1.92 ± 0.034 | 1.984 ± 0.014 |
| AGAUAU | 1.97 ± 0.011 | 2.04 ± 0.038 |
| CGAUCA | 2.008 ± 0.0093 | 2.04 ± 0.05 |
| GGAUCA | 2.02 ± 0.021 | 2.03 ± 0.05 |
| UGAUCA | 1.99 ± 0.021 | 2 ± 0.038 |
| CGAUCC | 2.05 ± 0.023 | 2.06 ± 0.036 |
| GGAUCC | 2.0688 ± 0.00086 | 2.06 ± 0.037 |
| UGAUCC | 2.059 ± 0.012 | 2.03 ± 0.049 |
| AGAUCC | 2.058 ± 0.0091 | 2.033 ± 0.02 |
| CGAUCG | 2.042 ± 0.013 | 2.05 ± 0.034 |
| GGAUCG | 2.0373 ± 0.00033 | 2.08 ± 0.045 |
| AGAUCG | 1.992 ± 0.0077 | 2.013 ± 0.019 |
| CGAUCU | 2.062 ± 0.0057 | 2.06 ± 0.03 |
| GGAUCU | 2.037 ± 0.0059 | 2.03 ± 0.045 |
